From PMC7138820, “Acetylation of histone H3K27 signals the transcriptional elongation for estrogen receptor alpha” (Communications Biology, 2020)

Target: the molecule itself
Assay: crystal structure; AFF4 900–1163, sitting-drop vapor diffusion at 16 °C, 2.2 M NaH2PO4, 0.4 M K2HPO4, 0.1 M MES pH 6.6; SAD phasing; 2.2 Å

B1: AFF4 fragment encompassing residues 900–1163 (crystallised) (domain or fragment, human, UniProt Q9UHB7 900-1163, looked up)
chain: KPRRTKLVFDDRNYSADHYLQEAKKLKHNADALSDRFEKAVYYLDAVVSFIECGNALEKNAQESKSPFPMYSETVDLIKYTMKLKNYLAPDATAADKRLTVLCLRCESLLYLRLFKLKKENALKYSKTLTEHLKNSYNNSQAPSPGLGSKAVGMPSPVSPKLSPGNSGNYSSGASSASASGSSVTIPQKIHQMAASYVQVTSNFLYATEIWDQAEQLSKEQKEFFAELDKVMGPLIFNASIMTDLVRYTRQGLHWLRQDAKLIS
notes: A selenomethionyl derivative was made for SAD phasing; also called AFF4 C-terminal dimerization domain; AFF4 homodimerization domain; source: E. coli BL21(DE3) codon-plus RIL, purified (Ni-chelating resin, HiTrap SP, Superdex 75); not shown: His, N-terminal, cleaved; SUMO, N-terminal, cleaved
binding result: binds
